The values below come from paper doi:10.1101/2025.08.04.668577 (bioRxiv, 2025).

This assay concerns the target E2 ectodomain of HCV strain 1a154 (Hepatitis C virus genotype 1a, isolate …, strain). Description: ELISA.

B1: HEPC108 IgG (antibody, V domains shown)
VH: QVQLVQSGAEVKKPGSSVKVSCKASGDTFSSSAISWVRQAPGQGLEWMGGSIPIFGATKYAQKFQGRVTITTDKSTSTAYMELSSLRFEDTAVYYCARASIVNISGFVRFRFDSWGQGTLVTVSS
VL: DIQMTQSPSSLSASVGDRVTITCQASQDISNYLNWYQQKPGKAPKLLIYDVSNLEIGVPSRFSGSGSGTEFTLTINSLQPEDLATYFCQHYDDVPPVYTFGQGTSLEIK
Take B1: the binding result is recorded as “binds”.
